Experimental data as given in patent US20080182978A1, “ANTI-NGF ANTIBODIES AND METHODS USING SAME” (RINAT NEUROSCIENCE CORP, priority 2002, published 2008).

Experiment: Dose response of E3 on body weight in arthritic rats (Example 9)
Assay type: in vivo, rat
Description: The ability of E3 to produce reduction in pain in arthritic rats was further investigated by examining the dose response relationship between E3 administration and pain reduction. Rats were treated with adjuvant to induce arthritis as described above. Ten rats not injected with adjuvant were used as non-arthritic controls. Fourteen days after adjuvant injection, animals were qualified into the study based on the criteria stated above, randomized into eight groups of ten rats and tested for the intensity of their vocalization response. They were then dosed on day 14 with saline, or 0.003 mg/kg, 0.01 mg/kg, 0.03 mg/kg, 0.1 mg/kg, 0.3 mg/kg, 1 mg/kg or 5 mg/kg of E3 antibody as described above. Animals were tested for their vocalization response on days 16, 18, 20, and 24. Animals were redosed with saline or the same dose of E3 on day 18 after the vocalization testing. Animals were also weighed each day, starting at day 14. Thus, animals were dosed twice with a given dose of antibody or saline on days 14 and 18, and assessed for pain five times, on days 14, 16, 18, 20 and 24. Data are shown in Tables 20-22 and in FIGS. 20-22.
The effect of treating animals with various doses of anti-NGF antibody E3 on body weight was statistically analyzed by using two-way ANOVA to compare the results obtained pairwise between arthritic animals treated with vehicle with those treated with a given dose of antibody E3. […] At all higher dose of E3, the difference between treated and untreated arthritic animals was significant (p= or <0.0001). […]

[1] = E3 0.1 mg/kg on days 14+18, day 17
[2] = E3 0.1 mg/kg on days 14+18, day 18
[3] = E3 0.1 mg/kg on days 14+18, day 20
[4] = E3 0.1 mg/kg on days 14+18, day 21
[5] = E3 0.1 mg/kg on days 14+18, day 23
[6] = E3 0.1 mg/kg on days 14+18, day 24
[7] = E3 0.3 mg/kg on days 14+18, day 14
[8] = E3 0.3 mg/kg on days 14+18, day 15
[9] = E3 0.3 mg/kg on days 14+18, day 16
[10] = E3 0.3 mg/kg on days 14+18, day 17
[11] = E3 0.3 mg/kg on days 14+18, day 18
[12] = E3 0.3 mg/kg on days 14+18, day 20
[13] = E3 0.3 mg/kg on days 14+18, day 21
[14] = E3 0.3 mg/kg on days 14+18, day 23
[15] = E3 0.3 mg/kg on days 14+18, day 24
[16] = E3 1.0 mg/kg on days 14+18, day 14
[17] = E3 1.0 mg/kg on days 14+18, day 15
[18] = E3 1.0 mg/kg on days 14+18, day 16
[19] = E3 1.0 mg/kg on days 14+18, day 17
[20] = E3 1.0 mg/kg on days 14+18, day 18
[21] = E3 1.0 mg/kg on days 14+18, day 20
[22] = E3 1.0 mg/kg on days 14+18, day 21
[23] = E3 1.0 mg/kg on days 14+18, day 23
[24] = E3 1.0 mg/kg on days 14+18, day 24
[25] = E3 5.0 mg/kg on days 14+18, day 14
[26] = E3 5.0 mg/kg on days 14+18, day 15
[27] = E3 5.0 mg/kg on days 14+18, day 16
[28] = E3 5.0 mg/kg on days 14+18, day 17
[29] = E3 5.0 mg/kg on days 14+18, day 18
[30] = E3 5.0 mg/kg on days 14+18, day 20
[31] = E3 5.0 mg/kg on days 14+18, day 21
[32] = E3 5.0 mg/kg on days 14+18, day 23
[33] = E3 5.0 mg/kg on days 14+18, day 24

B1: E3: humanized, affinity matured anti-NGF antagonist antibody; variable regions SEQ ID NO:1 and 2; human IgG2a (A330P331 to S330S331), kappa (antibody, V domains shown)
VH: QVQLQESGPGLVKPSETLSLTCTVSGFSLIGYDLNWIRQPPGKGLEWIGIIWGDGTTDYNSAVKSRVTISKDTSKNQFSLKLSSVTAADTAVYYCARGGYWYATSYYFDYWGQGTLVTVS
VL: DIQMTQSPSSLSASVGDRVTITCRASQSISNNLNWYQQKPGKAPKLLIYYTSRFHSGVPSRFSGSGSGTDFTFTISSLQPEDIATYYCQQEHTLPYTFGQGTKLEIKRT
modifications: human IgG2a constant (A330S/P331S) and kappa constant missing
E3 0.1 mg/kg on days 14+18, day 16
  Body weight normalized to day 14: 101.07
[1]
  Body weight normalized to day 0: 115.99
  Body weight normalized to day 14: 101.89
[2]
  Body weight normalized to day 0: 118.01
  Body weight normalized to day 14: 103.69
[3]
  Body weight normalized to day 0: 122.17
  Body weight normalized to day 14: 107.36
[4]
  Body weight normalized to day 0: 123.49
  Body weight normalized to day 14: 108.50
[5]
  Body weight normalized to day 0: 124.35
  Body weight normalized to day 14: 109.25
[6]
  Body weight normalized to day 0: 123.77
  Body weight normalized to day 14: 108.77
E3 0.3 mg/kg on days 14+18, day 0
  Body weight normalized to day 0: 100.00
E3 0.3 mg/kg on days 14+18, day 1
  Body weight normalized to day 0: 99.26
E3 0.3 mg/kg on days 14+18, day 2
  Body weight normalized to day 0: 102.98
E3 0.3 mg/kg on days 14+18, day 3
  Body weight normalized to day 0: 106.95
E3 0.3 mg/kg on days 14+18, day 4
  Body weight normalized to day 0: 110.50
E3 0.3 mg/kg on days 14+18, day 7
  Body weight normalized to day 0: 120.03
E3 0.3 mg/kg on days 14+18, day 8
  Body weight normalized to day 0: 121.38
E3 0.3 mg/kg on days 14+18, day 9
  Body weight normalized to day 0: 121.57
E3 0.3 mg/kg on days 14+18, day 10
  Body weight normalized to day 0: 118.27
E3 0.3 mg/kg on days 14+18, day 11
  Body weight normalized to day 0: 116.02
[7]
  Body weight normalized to day 0: 108.43
  Body weight normalized to day 14: 100.00
[8]
  Body weight normalized to day 0: 109.59
  Body weight normalized to day 14: 101.05
[9]
  Body weight normalized to day 0: 111.54
  Body weight normalized to day 14: 102.88
[10]
  Body weight normalized to day 0: 113.57
  Body weight normalized to day 14: 104.76
[11]
  Body weight normalized to day 0: 116.13
  Body weight normalized to day 14: 107.11
[12]
  Body weight normalized to day 0: 120.62
  Body weight normalized to day 14: 111.26
[13]
  Body weight normalized to day 0: 122.88
  Body weight normalized to day 14: 113.31
[14]
  Body weight normalized to day 0: 125.36
  Body weight normalized to day 14: 115.59
[15]
  Body weight normalized to day 0: 125.33
  Body weight normalized to day 14: 115.58
E3 1.0 mg/kg on days 14+18, day 0
  Body weight normalized to day 0: 100.00
E3 1.0 mg/kg on days 14+18, day 1
  Body weight normalized to day 0: 98.81
E3 1.0 mg/kg on days 14+18, day 2
  Body weight normalized to day 0: 103.18
E3 1.0 mg/kg on days 14+18, day 3
  Body weight normalized to day 0: 106.52
E3 1.0 mg/kg on days 14+18, day 4
  Body weight normalized to day 0: 110.52
E3 1.0 mg/kg on days 14+18, day 7
  Body weight normalized to day 0: 121.54
E3 1.0 mg/kg on days 14+18, day 8
  Body weight normalized to day 0: 124.28
E3 1.0 mg/kg on days 14+18, day 9
  Body weight normalized to day 0: 125.60
E3 1.0 mg/kg on days 14+18, day 10
  Body weight normalized to day 0: 124.11
E3 1.0 mg/kg on days 14+18, day 11
  Body weight normalized to day 0: 121.27
[16]
  Body weight normalized to day 0: 111.72
  Body weight normalized to day 14: 100.00
[17]
  Body weight normalized to day 0: 112.30
  Body weight normalized to day 14: 100.53
[18]
  Body weight normalized to day 0: 115.00
  Body weight normalized to day 14: 102.95
[19]
  Body weight normalized to day 0: 118.08
  Body weight normalized to day 14: 105.74
[20]
  Body weight normalized to day 0: 121.16
  Body weight normalized to day 14: 108.46
[21]
  Body weight normalized to day 0: 126.90
  Body weight normalized to day 14: 113.57
[22]
  Body weight normalized to day 0: 130.41
  Body weight normalized to day 14: 116.71
[23]
  Body weight normalized to day 0: 137.81
  Body weight normalized to day 14: 123.35
[24]
  Body weight normalized to day 0: 138.93
  Body weight normalized to day 14: 124.41
E3 5.0 mg/kg on days 14+18, day 0
  Body weight normalized to day 0: 100.00
E3 5.0 mg/kg on days 14+18, day 1
  Body weight normalized to day 0: 98.25
E3 5.0 mg/kg on days 14+18, day 2
  Body weight normalized to day 0: 101.82
E3 5.0 mg/kg on days 14+18, day 3
  Body weight normalized to day 0: 105.47
E3 5.0 mg/kg on days 14+18, day 4
  Body weight normalized to day 0: 109.29
E3 5.0 mg/kg on days 14+18, day 7
  Body weight normalized to day 0: 119.77
E3 5.0 mg/kg on days 14+18, day 8
  Body weight normalized to day 0: 121.96
E3 5.0 mg/kg on days 14+18, day 9
  Body weight normalized to day 0: 123.04
E3 5.0 mg/kg on days 14+18, day 10
  Body weight normalized to day 0: 120.00
E3 5.0 mg/kg on days 14+18, day 11
  Body weight normalized to day 0: 117.97
[25]
  Body weight normalized to day 0: 111.58
  Body weight normalized to day 14: 100.00
[26]
  Body weight normalized to day 0: 113.33
  Body weight normalized to day 14: 101.61
[27]
  Body weight normalized to day 0: 116.06
  Body weight normalized to day 14: 104.09
[28]
  Body weight normalized to day 0: 119.14
  Body weight normalized to day 14: 106.85
[29]
  Body weight normalized to day 0: 122.14
  Body weight normalized to day 14: 109.53
[30]
  Body weight normalized to day 0: 128.60
  Body weight normalized to day 14: 115.32
[31]
  Body weight normalized to day 0: 132.82
  Body weight normalized to day 14: 119.11
[32]
  Body weight normalized to day 0: 140.79
  Body weight normalized to day 14: 126.36
[33]
  Body weight normalized to day 0: 141.77
  Body weight normalized to day 14: 127.25
Data normalized to day 0, 0.03 mg/kg (p<0.002)
  change in body weight vs vehicle-treated arthritic animals (two-way ANOVA): significant change in body weight
Data normalized to day 14, 0.03 mg/kg (p<0.005)
  change in body weight vs vehicle-treated arthritic animals (two-way ANOVA): significant change in body weight
rat, in vivo
  weight loss compared with saline treated arthritic rats: less apparent weight loss than saline treated arthritic rats
